From publication PMC8961635

Legend:
[1] = biological target: CyuA from Methanococcus maripaludis (Methanococcus maripaludis); assay: SEC-MALS; holo-form ([4Fe-4S] cluster reconstituted anaerobically; analysed aerobically immediately after thawing); 100 µL at ~2 mg·mL^−1 injected on Superdex 200 increase 10/300 GL, 0.5 mL·min^−1, 25 mM HEPES pH 7.5, 300 mM NaCl, 5 mM DTT; monomer or dimer
[2] = biological target: CyuA from Methanococcus maripaludis (Methanococcus maripaludis); assay: SEC-MALS; apo-form (as-purified protein, <5% cluster); 100 µL at ~2 mg·mL^−1 injected on Superdex 200 increase 10/300 GL, 0.5 mL·min^−1, 25 mM HEPES pH 7.5, 300 mM NaCl, 5 mM DTT; monomer or dimer
[3] = biological target: LarE from Methanococcus maripaludis (Methanococcus maripaludis); assay: SEC-MALS; holo-form ([4Fe-4S] cluster reconstituted anaerobically; analysed aerobically immediately after thawing); 100 µL at ~2 mg·mL^−1 injected on Superdex 200 increase 10/300 GL, 0.5 mL·min^−1, 25 mM HEPES pH 7.5, 300 mM NaCl, 5 mM DTT; monomer or dimer
[4] = biological target: LarE from Methanococcus maripaludis (Methanococcus maripaludis); assay: SEC-MALS; apo-form (as-purified protein, <5% cluster); 100 µL at ~2 mg·mL^−1 injected on Superdex 200 increase 10/300 GL, 0.5 mL·min^−1, 25 mM HEPES pH 7.5, 300 mM NaCl, 5 mM DTT; monomer or dimer
human CISD2 (human) = assay: SEC-MALS; holo-form ([2Fe-2S] cluster bound); 100 µL at ~2 mg·mL^−1 injected on Superdex 200 increase 10/300 GL, 0.5 mL·min^−1, 50 mM sodium phosphate pH 7.5, 50 mM NaCl, 10 mM DTT; monomer or dimer
human mitoNEET (human) = assay: as above

Substance: CyuA from Methanococcus maripaludis (enzyme)
- stoichiometry N [1]: 2
- stoichiometry N [2]: 2

Substance: LarE from Methanococcus maripaludis (enzyme)
- stoichiometry N [3]: 2
- stoichiometry N [4]: 2

Substance: human CISD2 (domain or fragment)
- stoichiometry N (human CISD2 (human)): 2

Substance: human mitoNEET (domain or fragment)
- stoichiometry N (human mitoNEET (human)): 2
